Laboratory results taken from the DeepSol protein solubility set.

Assay: soluble on expression in E. coli; label from the status in PepcDB or PDB records

Sequence	soluble on expression in E. coli
MEKVKKIVLIGASGFVGSALLNEALNRGFEVTAVVRHPEKIKIENEHLKVKKADVSSLDEVCEVCKGADAVISAFNPGWNNPDIYDETIKVYLTIIDGVKKAGVNRFLMVGGAGSLFIAPGLRLMDSGEVPENILPGVKALGEFYLNFLMKEKEIDWVFFSPAADMRPGVRTGRYRLGKDDMIVDIVGNSHISVEDYAAAMIDELEHPKHHQERFTIGYLEHHHHHH	soluble
MGSDKIHHHHHHMNRLRTSFQQTTGQISGHGKRNVGVLKTAFAAVADEMASDQYGTGAIIEPFEQKFADVLGMDDAVFFPSGTMAQQVALRIWSDETDNRTVAYHPLCHLEIHEQDGLKELHPIETILVGAADRLMTLDEIKALPDIACLLLELPQREIGGVAPAFSELETISRYCRERGIRLHLDGARLFEMLPYYEKTAAEIAGLFDSIYISFYKGLGGIAGAILAGPAAFCQTARIWKRRYGGDLISLYPYIVSADYYYELRKDRMGQYYEQAKQLAEQFNALPGVHTTPEVPVSNMFHLHFDGQAADISPKLEQVQEETGLGFVGYLVDKDGYCSTEISVGDAYGELDQQTRDAGFARLRQAFS	not soluble
MGSDKIHHHHHHMAKTIKLILSDIDGTILDNNHQVDAHLRDTITELKKESIPFVLASARSPHGMFPIAQELNLGANPIACYNGALIVEGNKEHYQTLIEHGLSKADVKKIVALIKKQFPHISINFYSGGDWIVEEIDQWVQIEADITKESPDIRNFDTLLTDDAIPIHKLLLIANAQAIQEFFTYLKRVNFEDASFYLSKDNYLEVTSQSVSKENALLEIAKYYDISLSQTMAIGDNYNDIPMLKLAGLGVAMANAPQAVKNEADIETVSNNDNGVSKVIEDYVLI	not soluble
MSQGLPLREDVPVSETWDLVDLFKDDQQYYESIDALVQQANQFHHTYATTLNSIEQINTALAELENILIALDRLSNYAELRLSVDTSNIEAQVLSAKLSTTYGKIVSQLSFVESEILELPEEILQQLEESCPYQHYIKQLIKQKPFQLSASVEQVLATLSPTLNSPYDLYGTTKMLDITFDSFEHDGTTYPVDYATFENDYEDNKDPEFRRKSFKSFSDGIRKYQHTTAATYNMQVQQEKIEADLRGFESVIDYLLHSQEVTRDMFDRQIDMIMRDLAPVMQKYAKLLQRIHGLDNMRFEDLKISVDPDYEPEISIEDSKNYIFGALSVLGDDYTNMLREAYDQRWIDFAQNKGKDTGAFCASPYFTHSYVFISWTGKMAEAFVLAHELGHAGHFTLAQKHQPYLESEASMYFVEAPSTMNEMLMANYLFNTSDNPRFKRWIIGSILSRTYYHNMVTHLLEAAYQREVYHKVDQGESLNAPTLNEIMLNVYKQFFGDAVDMTEGAELTWMRQPHYYMGLYSYTYSAGLTIGTVVSQKIKNEGQPAVDAWLETLKKGGSVSPVELANIAGVDITTEQPLKSTIQYISDLVDEVEKLTDEIEQANN	soluble
MYYDVLKTFIAVVEEKNFTKAAEKLMISQPSVSLHIKNLEKEFQTALLNRSPKHFTTTPTGDILYQRAKQMVFLYEQAKAEIYAHHHYVKGELKIAASFTIGEYILPPLLAQLQKLYPELNLDVMIGNTEEVSERVRMLQADIGLIEGHTNENELEIEPFMEDEMCIAAPNQHPLAGRKEISISDLQNEAWVTREKGSGTREYLDHVLSSNGLRPKSMFTISSNQGVKEAVINGMGLSVLSRSVLRKDLIHREISILHINNFSLKRKLSYIHSPLMENTKNKEIFITMLKSNYQSQLLK	soluble
MSSVPSAHSEIVGALYRDHRGWLLAWLRRNVACPQRAQDLSQDTFVRLLGRDELQLPREPRAFLATIAKGLMFDYFRRAALEQAYLGELLQVPEAEQPSPEEQLLILEDLKAIDRMLGTLSSKARAAFLYNRLDGLSHGEIAERLGVSVSRVRQYLAQAVRQCYVALYGEPT	not soluble
LSLQSEIDSLCAVSHELLHLGLDGEPIYSDRFRQLNTDVYHRCEHLFGSHGRTLEEEASLCIALLTGYNATIYNHGDKEDKIQSVLNRSWDLLDTLPVSLLKCRLLVACYAEVFD	not soluble
MSLKKILVIGSKGFIGSNLVAYYEKINTIDVWGCDVISDYSSRNYFLIDASNSDFNEVFQQVAFDVCINCSGSASVPLSMINPGRDFHLNVLNVFNMLDSIRKNIPSCKFVNLSSAAVYGNPESLPIKEDTPINPLSPYGWHKLQSEILCKQFNQNFALHTCSLRIFSAYGIGLRKQLFWDWFQKINDAASMSIYGTGKESRDFIYIDDLIQCIECVVARGDFNAGIYNIANGQEIYIADAIKEFKKASGKSFEYTFTQETRPGDPINWVADISKLKTLGYQQQVTFEKGVEILMKWLQQEKEGHHHHHH	soluble
